Measurements reported in patent US20240218057A1 (ROCKEFELLER UNIVERSITY, published 2024).
Numbering of substitutions follows the chain as printed.

B1: C979 (antibody, V domains shown)
VH: QVQLVESGGGVVQPGRSLRLSCVASGFTFSNYGMHWVRQAPGKGLEWVAVILYDGSDKYYLDSVKGRFTISRDNSKNTLFLQLNSLRAEDTAVYYCAKEGNGYGYQYAGMDVWGQGTTVTVS
VL: QSALTQPASVSGSPGQSITISCTGTNSDVGGYDYVSWYQQHPGKAPKLIIFEVINRPSGVSNRFSGSKSGNTASLTISGLRAEDEADYYCCSYTTSTTRVFGGGTKLTVL
notes: IgG; V domains only
B2: C987 (antibody, V domains shown)
VH: QVQLQESGPGLVKPSETLSLTCNVSGDIINKYYWSWIRQSPGKGLEWIGYIYYSGTTYYNPSLKSRVTMSVGTSKQQFSLRLTSVTAADTAVYYCARMLSTEWSFNWFDPWGPGTLVTVSS
VL: SYELTQPPSVSVSPGQAASITCSGDKLGDKFACWYQQKPGQSPVLVIYQNDKRPTGIPERFSGSNSGNTATLTISGTQAMDEADYFCQAWDSTSASVFGTGTKVTVL
notes: IgG; V domains only
B3: C992 (antibody, V domains shown)
VH: QVQLQESGPGLVKPSQTLSLTCTVSGGSISNGGYFWTWIRQHPVKGLEWIGYIYYSGSPHYNPSLKSRLSISLDTFKNQFSLNLSSVTAADTAVYYCARGDTFGRGYYFDFWGQGTLVTVSS
VL: SYELTQPPSVSVAPGQTARITCGGNNIGTNSMHWYQQKPGQAPVLVVFDDSDRPSGIPERFSGSNSGNTATLTISRVEAGDEADYHCQVWDRSSDRPWVFGGGTKLTVL
notes: IgG; V domains only
B4: C975 (antibody, V domains shown)
VH: EVQLVESGGDLTQPGGSLRLSCAASGFTFSSYDMHWVRQATGKGLEWVSGIGTSGDTYYADSVKGRFTISRENAKNSLFLQMNNLRAGDTATYYCARTEYAWGSYRSYWYFDLWGRGTLVTVSS
VL: DIQMTQSPSSLSASVGDRVTITCRTSQTISTYLNWYQQKPGKAPKVLIYAASSLQSGVPSRFSGSGSGTDFTLTISSLQPEDFATYFCQQSYSAPPWTFGPGTKVEIK
notes: IgG; V domains only
B5: C976 (antibody, V domains shown)
VH: EVQLVESGGALIQPGGSLRLSCAASGFTVSSNDMTWVRQAPGKGLEWVSVIYTGGGTYHADSAKGRFIISRHNSKNTLSLQMNDLRAEDTAVYYCARLTMTTYYFDSWGQGTLVTVSS
VL: SYELTQPPSVSLAPGQTARITCGGNGIGSKSVHWYQQKPGRAPVLVVYDDSVRPSGTPARFSGANSGNTATLTISRVEAGDEADYYCQVWDSFRDHQDWVFGGGTKLTVL
notes: IgG; V domains only
B6: C971 (antibody, V domains shown)
VH: EVQLVESGGGLVKPGGSLRLSCAASGFTFNNAWMTWVRQAPGKGLEWVGRIKSKTDGGTTDYGTPAKGRFTISRDDSKNTLYLQMKSLRTEDTAVYYCTTVDVQGIWELLENDAFDIWGQGTMVTVSS
VL: EIVLTQSPGTLSLSPGERATLSCRATQAISSTYLAWYQQKPGQAPRLLIYGAFSRAPGIPDRFSGSGSETDFTLTISRLEPEDFAVYYCQQSDRSPFTFGPGTKVDIK
notes: IgG; V domains only
B7: C990 (antibody, V domains shown)
VH: EVQLVESGGGLVRPGGSLRLSCAASGFTVGSNFMSWVRQAPGKGLEWVSLIYSGGGTHYAESVKGRFTISRDKSKNTLYLQMNSLRAEDTAVYYCANQGYYYYMDVWGKGTTVTVS
VL: QSALTQPASVSGSPGQSITISCTGTSSDVGAYNYVSWHQHHPGKAPKLIIYDVSNRPSGVSNRFSGSKSGNTASLTISGLQAEDEADYYCTSYTNTTTPWVFGGGTKLTVL
notes: IgG; V domains only
B8: C989 (antibody, V domains shown)
VH: QVQLVQSGPEVKKPGSSVKVSCKASGGNFNSYTITWVRQAPGHGLEWMGRIIPTLGVANYALNFQDRITITADKSTSTAYMDLSSLRSEDTAVYYCARETGYSGFLAVAYMDVWGNGTTVTVSS
VL: QSVLTQPPSVSGAPGQRVTISCTGSSSNVGAGYDVHWYQQLPGTAPKLLIYRNNNRPSGVPDRFSGSKSGSSASLDITGLQAEDEADYYCQSYDSSLSDSVFGGGTKLTV
notes: IgG; V domains only
B9: C963 (antibody, V domains shown)
VH: QVQLVQSGAEVKKPGSSVRVSCKASGGTFSSFTITWVRQAPGQGLEWMGRIIPNLNIPNYAQRFQGRITITAEKSTSTAYLELSSLRSEDTAVYYCARGVGYSGSGSNWYFDLWGRGTLVTVSS
VL: B8 VL with V29I, Y51S, R52G, N53H, N54I, K68T, S71T, D76A
notes: IgG; V domains only
B10: C968 (antibody, V domains shown)
VH: QVQLVESGGGVVQPGRSLRLSCAASGFTFRIYAMHWVRQAPGKGLEWVAIIWNDGNKKDYVDSVKGRFTISRDNSRNTVYLQMNSLRVDEDTAVYYCAREGVAVGGNGVDGFDMWGQGTMVTVSS
VL: DIQMTQSPSSLSSSVGDRVTITCRASQSIGIYLNWYQQKPGKVPNLLIYAASTLQTGAPSRFSGSGSGTDFILSISSLQPEDFATYYCQQTYSVPYTFGQGTKLEIK
notes: IgG; V domains only
B11: C996 (antibody, V domains shown)
VH: EVQLVESGGGLVQPGGSLRLSCVASGFTSTNYDMHWVRQAPGRGLQWVSSIGTAGDTYYPGSVRGRFTISRENAKNSLDLQMNSLRVGDTAVYYCARGQRGYYDRSGYYWGWRAFDIWGQGTMVTVSS
VL: SYELTQPPSVSVAPGQTARITCGGNNIGNKSVYWYQQKPGQAPVLVVYDDSGRPSGIPERFSGSNSANTATLTISRVEAGDEADYYCQVWDNNSDQFGGGTKLTVL
notes: IgG; V domains only
B12: C969 (antibody, V domains shown)
VH: QVQLQESGPGLVKPSETLSLTCTVSGGSISSYYWSWIRQPPGKGLEWIGYIYYSGSTNYNPSLKSRVTISVDTSKNQFSLKLSSVTAADTAVYYCARLLSTEWLFNWFDPWGQGTLVTVSS
VL: not shown
notes: IgG; V domains only
B13: C977 (antibody, V domains shown)
VH: EVQLVESGGGLVQPGGSLRLSCAASGFTFSNYDMHWVRQVTGKGLEWVSLIGTAADAYYADSVKGRFTISRENAKNSLYLQINSLRAGDTAVYFCARGDSSGLYTFFDYWGQGTLVTVSS
VL: DIQMTQSPSSLSASVGDRVTITCRASQSVTRYLNWYQLKPGKAPKLLIYAASSLQSGVPSRFSGSGSGTDFTLTISSLQPEDFATYYCQQSYSTLGLTFGGGTKVEI
notes: IgG; V domains only
B14: C962 (antibody, V domains shown)
VH: EVQLVESGGGLVQPGGSLRLSCTASRLTVSSNYMNWVRQAPGKGLEWVSVIYAGGSTFYADSVKDRFTISRDNSMNTLYLQMNSLRVEDTAVYYCARLGGYRYGMDVWGQGTTVTV
VL: DIQMTQSPSSLSASVGDRVTITCQASQDISNYLNWYQQSPGKAPKLLIYDASKLETGVPSRFSGSGSGTDFTFTISSLQPEDIATYYCLQYDNLPYSFGQGTKLEI
notes: IgG; V domains only
B15: C967 (antibody, V domains shown)
VH: QVQLVESGGGVVQPGRSLRLSCAASGFTFRIYAMHWVRQAPGKGLEWVAIIWNDGSKQYYADSMKGRFTISRDNSKNTLYLQMNSLRDEDTALYYCAREGVALAGNGVDGFDIWGQGTMVTVSS
VL: DIQMTQSPSSLSASVGDRVTITCRASQTISTFLNWYRQIPGKAPKLLIYAASSLQSGVPSRFSGSGSGTDFTLTISSLQPEDFATYYCQQTYSTPYTFGRGTKLEIK
notes: IgG; V domains only
B16: C972 (antibody, V domains shown)
VH: EVQLVESGGGLVQPGGSLRLSCAASEFIVSRNYMSWVRQAPGKGLEWVSLIYPGGSTYYPDSVKGRFTISRDNSKNTLYLQMNSLRGEDTAVYYCARDLGDSRLDYWGQGALVTVSS
VL: DIQLTQSPSFLSASVGDRVTITCRASQGISSYLAWYQQDPGKAPKLLIYAASTLQSGVPSRFSGSGSGTEFTLTISSLQPEDFATYYCQQLDSYPPGYSFGQGTKLEIK
notes: IgG; V domains only
B17: C964 (antibody, V domains shown)
VH: EVQLVESGGGLVQPGRSLRLSCAASGFTFDDYGMHWVRQAPGKGLEWVSGISWNSGSIAYAEFVKGRFTISRDNAKNSLYLQMNSLRTEDTALYYCAKAVPTSCYVFCALDIWGQGTMVTVSS
VL: DIQMTQSPSSLSASVGDRVTITCRASQGISNYLAWYQQSPGKVPKLLIYAASTLQSGVPSRFSGSGSGTDFTLTISSLQPEDVATYYCQKYNSGPALTFGGGTKVEIK
notes: IgG; V domains only
B18: C958 (antibody, V domains shown)
VH: EVQLVQSGAEVKKPGDSLKISCKGSGYSFISHWIAWVRQKPGKGLEWMGIIHPGDSDTRYSPSIQGQVTISADRFITTAYLQWSSLQASDTAMYYCARRGSSWEIDHWGQGTLVTVSS
VL: QSVLTQPPSASGTPGQRVTISCSGSSSNIGSYTVNWYHQVPGTAPKVLIYGNTQRPSGVPDRFSGSKSGTSASLAISGLQSEDEGDYYCAAWDDSLDGWMFGGGTTLTVL
notes: IgG; V domains only
B19: C966 (antibody, V domains shown)
VH: EVQLVESGGGLIQPGGSLRLSCAASGFTFSSYDMHWVRQVTGKGLEWVSAIGTAGDRYYLDSVKGRFTISRENAKNSLHLQMNNLRVGDTAVYYCARASGVLTTHFDSWGRGTLVTVSS
VL: DIQMTQSPSSLSASVGDRVTITCRASQSIGRHLSWHQQKLGKAPKLLIYSASSLQSGVPSRFSGSGSGTDFTLTISSLQPEDFATYYCQQSYETPPWTFGQGTKVEIK
notes: IgG; V domains only
B20: C993 (antibody, V domains shown)
VH: EVQLLESGGGLVQPGGSLRLSCAASGFPFSIYAMSWVRQAPGKGLEWVSGMRGTTGTTYYADSVKGRFAISRDNSKNMLHLQMNSLRAEDTAVYYCAKSDHGDYVIGAFDIWGQGTMVTVSS
VL: QSALTQPPSASGSPGQSVTISCTGTSGDVGGYNYVSWYQQHPGKAPKLMIYEVSKRPSGVPDRFSGSKSGNTASLTVSGLQAEDEADYYCNSYAGSNNWVFGGGTKLTVL
notes: IgG; V domains only
B21: C978 (antibody, V domains shown)
VH: QVQLVQSGAEVKKPGSSVKVSCKASGATFSNYIISWVRQAPGQGLEWMGRTIPLLDIANYAQKFQGRVTITADKSTRIVYMHLGSLTSEDTAVYYCATGKGYSSSSAAYYFDHWGQGTLVTVSS
VL: QSVLTQPPSVSGAPGQRVTISCTGTNSNIGAGYDIHWYQQLPGTAPKLLIYGSNNRPSGVPDRFSGSKSGTSASLAITGLQAEDEADYYCQSYDSSLSGSEVFGGGTKLTVL
notes: IgG; V domains only
B22: C965 (antibody, V domains shown)
VH: EVQLVESGGGLVKPGRSLRLSCSASGFTFGDYAMTWFRQAPGKGLQWVGFIRSKPFGGTTQYAASVKGRFTISRDDSNNVAYLQMNSLKTEDTGVYYCTRLRQVQGVPGYYFDQWGQGALVTVSS
VL: EIVMTQSPATLSVSPGERATLSCRASQSVSSNLAWYQQKPGQAPRLLIYGASIRATGIPARFSGSGSGTEFTLTISSLQSEDFVVYYCQEYDNWFAFGGGTKVEIK
notes: IgG; V domains only

What follows are binders tested against T1, SARS-COV-2 RBD (SARS-COV-2, UniProt P0DTC2 319-539) (assay: ELISA, RBD coated).
T1 construct: also called WT RBD
Binder B1 has an EC50 of 2.54 ng/mL.
Binder B2 has an EC50 of 3.11 ng/mL.
In the case of B3, the EC50 is reported as 3.24 ng/mL.
B4 showed an EC50 of 2.88 ng/mL.
B5 gave an EC50 of 2.52 ng/mL.
Work on B6 yielded an EC50 of 2.21 ng/mL.
B7 showed an EC50 of 1.92 ng/mL.
In the case of B8, the EC50 is reported as 4.12 ng/mL.
B9 showed an EC50 of 2.96 ng/mL.
B10 showed an EC50 of 3.19 ng/mL.
In the case of B11, the EC50 is reported as 3.07 ng/mL.
Work on B12 yielded an EC50 of 3.49 ng/mL.
B13 gave an EC50 of 2.13 ng/mL.
In the case of B14, the EC50 is reported as 1.74 ng/mL.
In the case of B15, the EC50 is reported as 3.58 ng/mL.
In the case of B16, the EC50 is reported as 2.18 ng/mL.
Binder B17 has an EC50 of 2.79 ng/mL.
In the case of B18, the EC50 is reported as 4.02 ng/mL.
With B19 the EC50 was 1.97 ng/mL.
For B20, the EC50 was 2.29 ng/mL.
For B21, the EC50 was 2.09 ng/mL.
With B22 the EC50 was 1.69 ng/mL.
